The assay addresses histidine-tagged FcγRIIIa-158V receptor. Briefly: Fcγ receptor binding assay. Conditions: read at the highest antibody concentration, x about 0.0014 (axis unit printed as µg/mL); parent: est. 260; read off a plot.

For the substance IgG1-B (parent) N325D, the response came out at 55 RU. Under IgG1-B (parent) N325Q stands 17 RU.

The values above are taken from article PMC6962426.
